Test results as given in publication PMC7114193.

Experiments:
Conditions in all cases: modification not given
[1] = biological target: ACE2 (Homo sapiens), Q9BYF1; assay: SPR
[2] = biological target: ACE2 (Homo sapiens), Q9BYF1; assay: SPR; remark: listed apart in the source
[3] = biological target: ACE2 (Homo sapiens), Q9BYF1; assay: SPR; remark: listed apart in the source
[4] = biological target: ACE2 (Homo sapiens), Q9BYF1; assay: SPR; remark: listed apart in the source
[5] = biological target: ACE2 (Homo sapiens), Q9BYF1; assay: NMR

Chain of ACE2 (Homo sapiens), Q9BYF1 (Q9BYF1 18-740): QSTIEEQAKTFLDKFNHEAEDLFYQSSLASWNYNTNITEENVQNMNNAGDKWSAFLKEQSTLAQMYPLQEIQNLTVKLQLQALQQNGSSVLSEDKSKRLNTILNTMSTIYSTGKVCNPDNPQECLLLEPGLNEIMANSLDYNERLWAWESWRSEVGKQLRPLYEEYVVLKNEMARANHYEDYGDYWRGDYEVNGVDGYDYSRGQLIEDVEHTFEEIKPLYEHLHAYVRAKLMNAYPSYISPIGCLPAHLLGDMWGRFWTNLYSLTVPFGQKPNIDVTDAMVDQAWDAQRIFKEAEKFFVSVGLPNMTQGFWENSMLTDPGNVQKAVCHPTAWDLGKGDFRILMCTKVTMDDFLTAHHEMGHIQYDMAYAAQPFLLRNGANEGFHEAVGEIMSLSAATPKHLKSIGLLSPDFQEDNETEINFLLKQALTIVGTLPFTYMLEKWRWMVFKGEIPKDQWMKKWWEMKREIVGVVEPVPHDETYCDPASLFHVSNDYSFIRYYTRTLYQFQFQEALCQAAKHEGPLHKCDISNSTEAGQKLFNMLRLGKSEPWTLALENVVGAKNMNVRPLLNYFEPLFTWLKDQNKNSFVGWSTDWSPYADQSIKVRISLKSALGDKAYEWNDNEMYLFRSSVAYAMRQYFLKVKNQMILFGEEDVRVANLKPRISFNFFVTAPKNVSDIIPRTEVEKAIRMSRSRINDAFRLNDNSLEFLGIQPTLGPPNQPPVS

Row | Binder | Kd [1] | Kd [2] | Kd [3] | Kd [4] | Kd [5]
1 | YKYRYLRHGKLR [RBD-11 peptide, P59594] | 67 µM | 85 µM |  |  | 
2 | TTGIGYQPYRVV [RBD-15 peptide, P59594] | 450 µM |  | 672 µM |  | 
3 | CYWPLNDYGFYT [RBD-14 peptide, P59594] | 430 µM |  |  | 450 µM | 
4 | YKYRYL [RBD-11b peptide] | 46 µM |  |  |  | 60 µM
